3 molecules from US20240417476A1 (ATYR PHARMA, published 2024) can be followed below.

The target of assay [1] is Short NRP2A peptide (biotinylated) (human, biotin-conjugated, site not stated). Put plainly: BLI, peptide on sensor, 50 nM antibody.
In assay [2] the target is T1, NRP2a_scan 1 peptide (biotinylated) (human, also: biotin-conjugated, site not given here).
T1 peptide: VDIPEIHEREGY
Put plainly: BLI, peptide on sensor, 50 nM antibody.

For assay [3], the target named is T2, NRP2a_scan 2 peptide (biotinylated) (human, also: biotin-conjugated, site not given here).
T2 peptide: PEIHEREGYEDE
Put plainly: BLI, peptide on sensor, 50 nM antibody. A general note: In BLI a coated tip is dipped into the sample, and binding shifts an interference pattern.

The target of assay [4] is T3, NRP2b peptide (biotinylated) (human, biotin-conjugated, site not stated).
T3 construct: also called NRP2b isoform specific peptide
T3 peptide: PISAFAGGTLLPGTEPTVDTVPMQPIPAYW
In words: peptide ELISA.

Assay [5] addresses T4, Human NRP2a v2 (926aa) in pBiT2.1-C with C-terminal split NanoLuc tag, expressed in Expi293 cells (human, UniProt O60462 23-931).
T4 construct: cDNA Origene RCC220706, isoform 2; also called pBiT2.1-C-NRP2v2 (isoform 2); NRP2 v2; not shown: vector-encoded spacer and small split NanoLuc fragment (pBiT2.1-C)
Put plainly: CCL21-induced NRP2a/CCR7 receptor dimerization (NanoBiT, Example 7); mark beside the epitope box.

A further assay deals with T5, NRP2v3.
T5 construct: not the NanoLuc-tagged construct m33; also called human NRP2 v3 expressed on Expi293F cells; NRP2a v3
T5 chain: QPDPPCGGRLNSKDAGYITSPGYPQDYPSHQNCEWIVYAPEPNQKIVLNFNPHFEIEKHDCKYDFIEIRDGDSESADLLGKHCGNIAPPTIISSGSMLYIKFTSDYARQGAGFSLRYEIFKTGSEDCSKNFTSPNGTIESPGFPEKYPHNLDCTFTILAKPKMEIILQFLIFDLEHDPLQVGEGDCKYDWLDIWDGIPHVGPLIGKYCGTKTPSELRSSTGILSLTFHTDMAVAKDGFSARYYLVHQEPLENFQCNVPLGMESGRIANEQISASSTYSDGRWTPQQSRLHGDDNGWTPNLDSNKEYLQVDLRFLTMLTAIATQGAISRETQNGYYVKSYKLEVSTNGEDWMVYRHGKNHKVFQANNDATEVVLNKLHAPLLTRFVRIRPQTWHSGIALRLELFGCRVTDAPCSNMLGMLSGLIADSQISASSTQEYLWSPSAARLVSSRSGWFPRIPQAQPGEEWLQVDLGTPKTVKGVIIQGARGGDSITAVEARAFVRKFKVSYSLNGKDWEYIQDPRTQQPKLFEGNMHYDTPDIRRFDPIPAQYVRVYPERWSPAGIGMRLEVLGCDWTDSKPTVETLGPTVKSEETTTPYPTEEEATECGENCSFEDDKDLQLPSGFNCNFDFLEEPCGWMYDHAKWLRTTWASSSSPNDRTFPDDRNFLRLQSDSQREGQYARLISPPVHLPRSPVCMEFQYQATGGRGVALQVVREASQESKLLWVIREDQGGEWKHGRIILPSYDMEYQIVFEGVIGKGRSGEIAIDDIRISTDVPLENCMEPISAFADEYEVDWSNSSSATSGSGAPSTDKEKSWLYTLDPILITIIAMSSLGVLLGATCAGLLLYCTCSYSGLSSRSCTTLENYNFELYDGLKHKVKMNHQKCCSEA
Put plainly: flow cytometry, Expi293F cells transfected with the target, fluorescent anti-mouse secondary; MFI signal relative to mock-transfected cells.

Assay [6] has as its target T6, NRP2a_scan 7 peptide (biotinylated) (human, also: biotin-conjugated, site not given here).
T6 peptide: EYEVDWSNSSSA
Put plainly: BLI, peptide on sensor.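 Also: octet RED96e biolayer interferometry with biotin-conjugated NRP2 peptides spanning isoform-specific regions (human and mouse) loaded on biosensors, antibodies applied at 50 nM, association read over 300 s.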

Assay [7] deals with T7, NRP2a_scan 5 peptide (biotinylated) (human, also: biotin-conjugated, site not given here).
T7 peptide: EDEIDDEYEVDW
In words: BLI, peptide on sensor.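 Also: octet RED96e biolayer interferometry with biotin-conjugated NRP2 peptides spanning isoform-specific regions (human and mouse) loaded on biosensors, antibodies applied at 50 nM, association read over 300 s.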

Assay [8] has as its target mNRP2b peptide (biotinylated) (mouse, biotin-conjugated, site not stated). In words: BLI, peptide on sensor.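 Also: octet RED96e biolayer interferometry with biotin-conjugated NRP2 peptides spanning isoform-specific regions (human and mouse) loaded on biosensors, antibodies applied at 50 nM, association read over 300 s.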
In assay [9] the target is T8, NRP2a_scan 6 peptide (biotinylated) (human, also: biotin-conjugated, site not given here).
T8 peptide: IDDEYEVDWSNS
Put plainly: BLI, peptide on sensor.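 Also: octet RED96e biolayer interferometry with biotin-conjugated NRP2 peptides spanning isoform-specific regions (human and mouse) loaded on biosensors, antibodies applied at 50 nM, association read over 300 s.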

Assay [10] deals with T9, NRP2a_scan 4 peptide (biotinylated) (human, also: biotin-conjugated, site not given here).
T9 peptide: EGYEDEIDDEYE
Put plainly: BLI, peptide on sensor.

Assay [11] addresses T10, Mid-NRP2A peptide (biotinylated) (human, biotin-conjugated, site not stated).
T10 peptide: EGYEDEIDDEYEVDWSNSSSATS
Put plainly: BLI, peptide on sensor.

Assay [12] addresses T11, NRP2a_scan 3 peptide (biotinylated) (human, also: biotin-conjugated, site not given here).
T11 peptide: HEREGYEDEIDD
In words: BLI, peptide on sensor.

Assay [13] deals with T12, human NRP2b expressed on Expi293F cells (human).
T12 construct: also called full length NRP2b
T12 chain: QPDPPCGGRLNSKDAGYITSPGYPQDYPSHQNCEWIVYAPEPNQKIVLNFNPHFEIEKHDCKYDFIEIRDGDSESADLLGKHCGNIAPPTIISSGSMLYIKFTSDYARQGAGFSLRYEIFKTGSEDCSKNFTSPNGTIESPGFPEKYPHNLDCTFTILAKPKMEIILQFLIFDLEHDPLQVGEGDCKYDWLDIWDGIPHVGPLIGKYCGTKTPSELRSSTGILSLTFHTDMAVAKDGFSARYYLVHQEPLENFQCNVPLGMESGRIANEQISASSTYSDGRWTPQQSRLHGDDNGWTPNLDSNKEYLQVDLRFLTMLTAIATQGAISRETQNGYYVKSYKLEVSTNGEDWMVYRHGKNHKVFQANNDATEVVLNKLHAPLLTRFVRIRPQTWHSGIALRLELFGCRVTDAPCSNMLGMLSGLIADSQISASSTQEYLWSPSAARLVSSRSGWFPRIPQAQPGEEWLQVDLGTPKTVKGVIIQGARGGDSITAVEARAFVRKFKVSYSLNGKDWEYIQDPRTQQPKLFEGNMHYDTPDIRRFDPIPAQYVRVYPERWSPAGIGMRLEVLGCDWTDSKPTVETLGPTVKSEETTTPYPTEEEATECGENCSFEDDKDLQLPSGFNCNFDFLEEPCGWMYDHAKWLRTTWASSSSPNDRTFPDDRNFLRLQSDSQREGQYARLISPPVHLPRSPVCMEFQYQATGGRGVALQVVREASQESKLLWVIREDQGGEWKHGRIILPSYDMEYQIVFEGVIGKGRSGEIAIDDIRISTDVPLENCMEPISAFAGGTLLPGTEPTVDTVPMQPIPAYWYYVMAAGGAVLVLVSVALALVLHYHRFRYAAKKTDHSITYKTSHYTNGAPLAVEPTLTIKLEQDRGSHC
In words: flow cytometry, Expi293F cells transfected with the target, fluorescent anti-mouse secondary; MFI signal relative to mock-transfected cells. A general note: A flow cytometer gives signals particle by particle.
Procedure: (§1) Signal to noise was calculated as the staining intensity of transfected cells compared to an un-transfected ‘mock’ population.

Assay [14] addresses T13, NRP2A peptide (biotinylated) (human, biotin-conjugated, site not stated).
T13 construct: also called NPR2A; NRP2a specific peptide
In words: BLI, isoform peptide on sensor, 50 nM antibody.

In assay [15] the target is T14, CCR7, full coding sequence, in pBiT1.1-C with C-terminal split NanoLuc tag, expressed in Expi293F cells (human, UniProt P32248 25-378).
T14 construct: cDNA Genscript OHu24012; not shown: vector-encoded spacer and large split NanoLuc fragment (pBiT1.1-C)
T14 sequence: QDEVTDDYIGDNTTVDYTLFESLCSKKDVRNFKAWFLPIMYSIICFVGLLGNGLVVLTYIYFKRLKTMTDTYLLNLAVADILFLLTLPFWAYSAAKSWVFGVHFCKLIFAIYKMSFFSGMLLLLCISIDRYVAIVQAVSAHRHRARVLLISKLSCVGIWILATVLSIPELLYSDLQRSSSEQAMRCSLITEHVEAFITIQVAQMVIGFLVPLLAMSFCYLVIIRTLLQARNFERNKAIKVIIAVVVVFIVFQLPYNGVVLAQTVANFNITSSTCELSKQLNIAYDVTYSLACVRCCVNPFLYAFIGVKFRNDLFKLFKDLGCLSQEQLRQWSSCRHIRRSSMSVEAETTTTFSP
Put plainly: NanoBiT split-luciferase complementation of tagged NRP2 and CCR7 in Expi293F cells; normalized to wells without ligand.

Assay [16] addresses T14, CCR7, full coding sequence, in …. Described as above. This is another data set of the same source.
Procedure: The vectors were then transfected into Expi293F cells by Expifectamine transfection reagent (Fisher Scientific) at 1 ug per mL at a density of 1 million cells per mL. Approximately 16-20 hours post transfection, cells were washed, plated at 100,000 cells/well in luminometer plates, and then cell permeable luciferase substrate was added and luminescence was monitored on a GloMax96 (Promega) until stabilization of luminescent signal was achieved.

Read-outs that look alike come from different tables or passages of the source. Ends that are not written are not given here. Where only a bound is given, the exact number is not on record here.

Sequence of mNRP2b peptide (biotinylated) (mouse, biotin-conjugated, site not stated) (peptide, as listed by the source): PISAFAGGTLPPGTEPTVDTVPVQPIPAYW
Procedure for NRP2v3: as §1

B1: aNRP2-404v2 (antibody, V domains shown)
VH: EVQLQQSGPELVKPGASVKISCKASGYTFTDYNMHWVKQSHGKSLEWIGYIYPYNGDSGYNQRFKSEATLTVDISSSTAYMELRSLTSDDSAVYYCARLGRGYWGQGTTLTVSS
VL: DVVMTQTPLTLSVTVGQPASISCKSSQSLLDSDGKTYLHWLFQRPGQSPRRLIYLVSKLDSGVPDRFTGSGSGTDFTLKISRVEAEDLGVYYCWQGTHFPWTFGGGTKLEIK
notes: Mouse monoclonal
As to B1, the binding result was “binds” in assay [1]; “binds” in assay [2]; “binds” in assay [3]; “no binding (tested: <3x blank)” in assay [4]; “no binding” with NRP2v3; “no binding (tested: 50 nM)” in assay [6]. The binding result in [7], in assay [8], in [9], in assay [10], in assay [11] and in [12] was “no binding (tested: 50 nM)” in each case. Further, the figures for the binding result in assay [13] and in [14] were “no binding” and “binds”, respectively. The same molecule registered a blocks receptor dimerization in [5] of under 50%.

B2: Human NRP2b v4 (906aa) with C-terminal split NanoLuc tag, expressed in Expi293F cells (receptor)
chain: QPDPPCGGRLNSKDAGYITSPGYPQDYPSHQNCEWIVYAPEPNQKIVLNFNPHFEIEKHDCKYDFIEIRDGDSESADLLGKHCGNIAPPTIISSGSMLYIKFTSDYARQGAGFSLRYEIFKTGSEDCSKNFTSPNGTIESPGFPEKYPHNLDCTFTILAKPKMEIILQFLIFDLEHDPLQVGEGDCKYDWLDIWDGIPHVGPLIGKYCGTKTPSELRSSTGILSLTFHTDMAVAKDGFSARYYLVHQEPLENFQCNVPLGMESGRIANEQISASSTYSDGRWTPQQSRLHGDDNGWTPNLDSNKEYLQVDLRFLTMLTAIATQGAISRETQNGYYVKSYKLEVSTNGEDWMVYRHGKNHKVFQANNDATEVVLNKLHAPLLTRFVRIRPQTWHSGIALRLELFGCRVTDAPCSNMLGMLSGLIADSQISASSTQEYLWSPSAARLVSSRSGWFPRIPQAQPGEEWLQVDLGTPKTVKGVIIQGARGGDSITAVEARAFVRKFKVSYSLNGKDWEYIQDPRTQQPKLFEGNMHYDTPDIRRFDPIPAQYVRVYPERWSPAGIGMRLEVLGCDWTDSKPTVETLGPTVKSEETTTPYPTEEEATECGENCSFEDDKDLQLPSGFNCNFDFLEEPCGWMYDHAKWLRTTWASSSSPNDRTFPDDRNFLRLQSDSQREGQYARLISPPVHLPRSPVCMEFQYQATGGRGVALQVVREASQESKLLWVIREDQGGEWKHGRIILPSYDMEYQIVFEGVIGKGRSGEIAIDDIRISTDVPLENCMEPISAFAGENFKGGTLLPGTEPTVDTVPMQPIPAYWYYVMAAGGAVLVLVSVALALVLHYHRFRYAAKKTDHSITYKTSHYTNGAPLAVEPTLTIKLEQDRGSHC
notes: not shown: vector-encoded spacer and split NanoLuc fragment
Turning to B2, in assay [15], the binding result is “no binding (tested: 100 nM CCL21 or CCL19 (from the text))”.

B3: Human NRP2b v5 with C-terminal split NanoLuc tag, expressed in Expi293F cells (receptor)
chain: QPDPPCGGRLNSKDAGYITSPGYPQDYPSHQNCEWIVYAPEPNQKIVLNFNPHFEIEKHDCKYDFIEIRDGDSESADLLGKHCGNIAPPTIISSGSMLYIKFTSDYARQGAGFSLRYEIFKTGSEDCSKNFTSPNGTIESPGFPEKYPHNLDCTFTILAKPKMEIILQFLIFDLEHDPLQVGEGDCKYDWLDIWDGIPHVGPLIGKYCGTKTPSELRSSTGILSLTFHTDMAVAKDGFSARYYLVHQEPLENFQCNVPLGMESGRIANEQISASSTYSDGRWTPQQSRLHGDDNGWTPNLDSNKEYLQVDLRFLTMLTAIATQGAISRETQNGYYVKSYKLEVSTNGEDWMVYRHGKNHKVFQANNDATEVVLNKLHAPLLTRFVRIRPQTWHSGIALRLELFGCRVTDAPCSNMLGMLSGLIADSQISASSTQEYLWSPSAARLVSSRSGWFPRIPQAQPGEEWLQVDLGTPKTVKGVIIQGARGGDSITAVEARAFVRKFKVSYSLNGKDWEYIQDPRTQQPKLFEGNMHYDTPDIRRFDPIPAQYVRVYPERWSPAGIGMRLEVLGCDWTDSKPTVETLGPTVKSEETTTPYPTEEEATECGENCSFEDDKDLQLPSGFNCNFDFLEEPCGWMYDHAKWLRTTWASSSSPNDRTFPDDRNFLRLQSDSQREGQYARLISPPVHLPRSPVCMEFQYQATGGRGVALQVVREASQESKLLWVIREDQGGEWKHGRIILPSYDMEYQIVFEGVIGKGRSGEIAIDDIRISTDVPLENCMEPISAFAGGTLLPGTEPTVDTVPMQPIPAYWYYVMAAGGAVLVLVSVALALVLHYHRFRYAAKKTDHSITYKTSHYTNGAPLAVEPTLTIKLEQDRGSHC
notes: cDNA Origene RC210928, isoform 5; not shown: vector-encoded spacer and split NanoLuc fragment
For B3, the binding result in [16] is reported as “no binding (tested: 100 nM CCL21 or CCL19 (from the text))”.
